Assays:
K29-linked diubiquitin [1] = target: K29-linked diubiquitin (UniProt P0CG48); assay: Western blot
[2] = target: His-tagged K29-linked diubiquitin (UniProt P0CG48); assay: SPR
K29-linked diubiquitin [3] = target: K29-linked diubiquitin (UniProt P0CG48); assay: crystal structure
[4] = target: biotinylated K29-linked diUb (chemically synthesized) (UniProt P0CG48); assay: ELISA

fold more sensitive than for the other diUbs tested (K29-linked diubiquitin [1]): > 320 fold
lowest amount detected (K29-linked diubiquitin [1]): 0.78 ng
Kd [2]: 3.13 nM
stoichiometry N (K29-linked diubiquitin [3]): 1
EC50 [4]: 1.46 nM
B1: sAB-K29 (Fab, V domains shown)
VH: EVQLVESGGGLVQPGGSLRLSCAASGFNVSYSSIHWVRQAPGKGLEWVASIYSYYGSTYYADSVKGRFTISADTSKNTAYLQMNSLRAEDTAVYYCARYGFAGQPETWYAMDYWGQGTLVTVSS
VL: DIQMTQSPSSLSASVGDRVTITCRASQSVSSAVAWYQQKPGKAPKLLIYSASSLYSGVPSRFSGSRSGTDFTLTISSLQPEDFATYYCQQAYVEPITFGQGTKVEIK

Source: publication PMC8717942
